The text below walks through data of the DeepSol protein solubility set.

A short description of the data set: soluble on expression in E. coli; label from the status in PepcDB or PDB records.
With “MGSDKIHHHHHHMDRIIEKLDHGWWVVSHEQKLWLPKGELPYGEAANFDLVGQRALQIGEWQGEPVWLVQQQRRHDMGSVRQVIDLDVGLFQLAGRGVQLAEFYRSHKYCGYCGHEMYPSKTEWAMLCSHCRERYYPQIAPCIIVAIRRDDSILLAQHTRHRNGVHTVLAGFVEVGETLEQAVAREVMEESGIKVKNLRYVTSQPWPFPQSLMTAFMAEYDSGDIVIDPKELLEANWYRYDDLPLLPPPGTVARRLIEDTVAMCRAEYE”, the “soluble on expression in E. coli” value is given as “soluble”.
Under “MRRFDCTVVAIHDDASLGCRLPGANKALRIQLNAVELPAAEPWRRRAREALEDMLLGKSATIREQGRDARFRILGAAWVTPADCPTCGHTLDAGLALLTIGLASWRDAPDSGQTAEARGQYRFAEEEARARKAGQWRP” stands “soluble”; under “MSLKALVLTGTKQFEMQDVTTPTVKDDEVLVNTAYAGICGTDRALYAGLPGSADAVPPIVLGHENSGIVAAIGRNVTNVKVGDRVTVDPNIYCGECEYCRTDRPELCDNLSAVGVTRDGGLEESFTAPASVVYPIPDSVSLKAAATVEPISCAVHGVKLLDLTPYQKALVIGDGFMGQLFVQLLQAYGVHQVDFAGIVDEKLAFNKEKFGVTNTYNTTRDSIPADYDVVIEAVGLPQTQEQAVEATKKGAQVLMFGVGKPNQTFSMNTYEVYQKQLKIQGAFINPYAFEDSIALLASGQLDVESLISHEVSLEQVEDVLNGKVEHVSKAVVKVSEGHHHHHH”, “soluble”.
Turning to “MHHHHHHSSGVDLGTENLYFQSMSVGFIGAGQLAFALAKGFTAAGVLAAHKIMASSPDMDLATVSALRKMGVKLTPHNKETVQHSDVLFLAVKPHIIPFILDEIGADIEDRHIVVSCAAGVTISSIEKKLSAFRPAPRVIRCMTNTPVVVREGATVYATGTHAQVEDGRLMEQLLSSVGFCTEVEEDLIDAVTGLSGSGPAYAFTALDALADGGVKMGLPRRLAVRLGAQALLGAAKMLLHSEQHPGQLKDNVSSPGGATIHALHVLESGGFRSLLINAVEASCIRTRELQSMADQEQVSPAAIKKTILDKVKLDSPAGTAL”, the “soluble on expression in E. coli” value is reported as “soluble”.
Under “SRWQRDLTDSTVLRNMGVALGHTLLAYDSCLKGLGKLQADPARLSEDLQNAWEVLAEPIQTVMRRYGVANPYEQLKALTRGKTGIDRTTLQQFIEQLDIPAAERDRLLQLTPWGYI” stands “not soluble”; under “NKDLLWTTSLNIGHNKNKLTKLDGEQQEIISGVSIHRVGQPYYSIYAYEYAGVDPQTGKELYYINGEDGSRETTTNSAAANKTIIGSIEPKVQGGLTNYVSWKFIDFNLTLTYSLGGHAYDYATWLQSNGGTYHYLGNVPAYYKMEDTWQKTGDNAKLPQFAYGNANKASSRWLMSTDHLRVKNMTLGFTLPQSWSSKAGISKLRAYVSGNNLLTWKKKSLYVDPEVPVDGLCTFETPALRTVTFGLEIGF”, “not soluble”; under “EHRSIMNTLNFLESHYPVTAEDAYLLKTNYVFDVSISELFGWFIGDGRLVILPPNGEKSPQLCMDYIETYKVTHINFVPAMLHVFLEMAKDNKRFTEDGPLKYMMVAGEAFPKVLVKKAVSLFTNCRVENIYGPTEASIYAAYFGCGKGDIASHHTPIGKP”, “not soluble”.
For “MSLNLLALPLRSEVELADARTRARHIAELLGLGNQDQVRVATVVSELARNVLLYAGSGQVTFSVRDEAGRSTLLIEVRDQGPGLGHLDEVLGGQYRSKTGMGVGLTGTRRLMDEFDIQTAPGKGTVVRVGKHLPAVVGDAEQRRVAEVLGSSGPRDLLTALSVQNRDLLETLAALNEREERLQVLNQELQDTNRGVVALYAELEEKAERLREANGLKTTFLSYMSHELRTPLHSMLGLARILSGQLDGPLNPEQLKQVQLLQGAAGDLLEMVNGLLDLAKMEAGKTDVDVTTFEVRELFGTLRALFLPLLDNPAVNLIFEDAAGFPPLTTDQRKVEQVLRNFIANALKFTAAGEVRVTAQLLPSGDRVRFTVQDTGIGLSDEEQAQLFQDFSQVGRPGRPAGTGLGLSIARKFTELLGGRVGVQSAPGAGAEFSAELPVVYPGVGAAKRPRALLIDDSEADRYVLTTLLTRAGYEVDEVAYAEPGLEQARSGAYDAVVLDLNLPDRSGLDVLRALRENAGTRSLPVLVVIAAALDAAERAALETLGASVHLKEALYQDEQVLFASLPSGSVHYGEAEGHHHHHH”, the “soluble on expression in E. coli” value was “soluble”.
Under “MELEQREGTMAAVGFEEFSAPPGSELALPPLFGGHILESELETEVEFVSGGLGGSGLRERDEEEEAARGRRRRQRELNRRKYQALGRRCREIEQVNERVLNRLHQVQRITRRLQQERRFLMRVLDSYGDDYRASQFTIVLEDEGSQGTDAPTPGNAENEPPEKETLSPPRRTPAPPEPGSPAPGEGPSGRKRRRVPRDGRRAGNALTPELAPVQIKVEEDFGFEADEALDSSWVSRGPDKLLPYPTLASPASD” stands “soluble”.
Under “MAKKTSSKGKLPPGPRPLPLLGNLLQMDRRGLLKSFLRFREKYGDVFTVHLGPRPVVMLCGVEAIREALVDKAEAFSGRGKIAMVDPFFRGYGVIFANGNRWKVLRRFSVTTMRDFGMGKRSVEERIQEEAQCLIEELRKSKGALMDPTFLFQSITANIICSIVFGKRFHYQDQEFLKMLNLFYQTFSLISSVFGQLFELFSGFLKHFPGAHRQVYKNLQEINAYIGHSVEKHRETLDPSAPRDLIDTYLLHMEKEKSNAHSEFSHQNLNLNTLSLFFAGTETTSTTLRYGFLLMLKYPHVAERVYREIEQVIGPHRPPELHDRAKMPYTEAVIYEIQRFSDLLPMGVPHIVTQHTSFRGYIIPKDTEVFLILSTALHDPHYFEKPDAFNPDHFLDANGALKKTEAFIPFSLGKRICLGEGIARAELFLFFTTILQNFSMASPVAPEDIDLTPQECGVGKIPPTYQIRFLPRHHHH” stands “soluble”.
Under “MSDLYRNKKILAPMVRAGRTPLRLLCLKYGADLCYTEEIVDKKLIEATRVVNEALGTIDYRNGDDIILRLAPEEKGRCILQIGTNSGEKAAKIAQIVGDDVAGIDVNMGCPKPFSIHCGMGAALLTQTEKIVDILTSLKSAAKVPVTCKIRVLDDPEDTLKLVQEIEKCRVSALGVHGRRRDERQPDKCRIDEIRDVAQAVQSIPVISNGLSDEIEQYSDFEKYQLLTETSSTMIARKALSTPSIFRREGCLDKYEDIRNFLELACQYDESYTMTKYVVQRILGADQEYDPRGKATVAAGSVLQICKAFGMEDVYDKWRDERKKKQSKKRARVDDDGVYNIEVSFPLKRLKNSVGFSPTPKMVLHDYCVETKIPKATYEVVKRDDKRFVATACIGDKKYRSGIGQPNLRMAEQVAALAALHGMNIRNLLVGNWEEE” stands “not soluble”.
Consider “MSHHRIIIIGAGAAGVGMAITLQEFNIKDVLIVEKGTIGHSFKHWPLSTKTITPSFTTNGFGMPDMNAIAKDTSPAFTFNEEHLSGKRYAEYLSLVATHYNLNVKTNTNVSRVTYIDGIYHVSTYYGVYTADYIFIATGDYSFPYHPFSYGLHYSEIQTFTQLKGDAFTIIGGNESAFDAAINLSQTGARISIYTSKTGLKKEDADPSIRLSPYTQQRLRNAIQEGALIEMHVGYQARKITYQNHSYKIHFDNGHIVHSHTEPIIATGFDVTQNPLIEQLFQVRQSEVQLTELDESTKFPNVFLIGATVRHQNAILCYIYKFRARFAVLARIVSLREGLPEDTSLIQSYRQKNMFLDDYSCCDVNCTCLEHHHHHH”, for which the “soluble on expression in E. coli” value was “not soluble”.
Under “MRAGIYRRSAGQGAEEKPEAVRAGHRGGGERHHDHAHHDGEGEFVVREELLHGRSVRFRRRSERIDEHEHRQRDRGHAQPGADRGAPGRQRATTGDNVCDGTPGSPHRRVRRRRPAPAA” stands “not soluble”.
Under “SNAMNPIEFWFDFSSGYAFFAAQRIEALAAELGRTVLWRPYMLGAAFSVTGARGLSSTPLKRDYAQRDWARIARQRGLTFRPPADHPHVALAATRAFYWIEAQSPDAATAFAQRVFDLYFSDRLDTASPEAVSRLGPEVGLEPEALLAGIADPALKETVRKIGEDAVARGIFGSPFFLVDDEPFWGWDRMEMMAEWIRTGGW” stands “soluble”; under “MRLNHKQGTAGEDAALAFLQSQGCTLLARNWHCAYGEIDLIVKNGGMILFVEVKYRKNQRFGGAAYSISPSKLLKLQRSVEYYLQQNRLTNVPCRLDAVLIEGNRPPEWIKNITG”, “soluble”; under “MNEIKLKYDTQVSVVHYESLDSRSFKSFSMPKWSKLVNKLSVPIEANYKYARGVAVYGDIKDNTNDHGEIIKKHRNDKNVIYRNVIVLDYDEINDVKQLHDAISSVLSSVAWYWHTSFSHTTEQARIRLYIPLNERISADDYRKYTKVLANKIGHKVDEGSYQPSRCFALPVIQKGHIFIKRVNDCPIMDVDMLEQWSKEYKQSNGSPNIKGYTRRDSAYWRDIAFGVSEGERNSTLASITGYLLRRYVDPNLVYGLVSAWASVCKPPINQSEVNNTFKSILKKDSKNS”, “not soluble”.
Under “GLAIEGPSEAKMSCKDNKDGSCTVEYIPFTPGDYDVNITFGGRPIPGSPFRVPVKDVVDPGKVKCSGPGLGAGVRARVPQTFTVDCSQAGRAPLQVAVLGPTGVAEPVEVRDNGDGTHTVHYTPATDGPYTVAVKYADQEVPRSPFKIKVLPAHDASKVRASGPGLNASGIPASLPVEFTIDARDAGEGLLTVQILDPEGKPKKANIRDNGDGTYTVSYLPDMSGRYTITIKYGGDEIPYSPFRIHALPTGDASKCLVTVSIGGHGLGACLGPRIQIGQETVITVDAKAAGEGKVTCTVSTPDGAELDVDVVENHDGTFDIYYTAPEPGKYVITIRFGGEHIPNSPFHVLACDPLPHEEEPSEVPQLRQPYAPPRPGARPTHWATEEPVVPVEPMESMLRPFNLVIPFAVQKGELTGEVRMPSGKTARPNITDNKDGTITVRYAPTEKGLHQMGIKYDGNHIPGSPLQFYVDAINSRHVSAYGPGLSHGMVNKPATFTIVTKDAGEGGLSLAVEGPSKAEITCKDNKDGTCTVSYLPTAPGDYSIIVRFDDKHIPGSPFTAKITGDDSMRTSQLNVGTSTDVSLKITESDLSQLTASIRAPSGNEEPCLLKRLPNRHIGISFTPKEVGEHVVSVRKSGKHVTNSPFKILVGPSEIGDASKVRVWGKGLSEGHTFQVAEFIVDTRNAGYGGLGLSIEGPSKVDINCEDMEDGTCKVTYCPTEPGTYIINIKFADKHVPGSPFTVKVTGEGRMKESITRRRQAPSIATIGSTCDLNLKIPGNWFQMVSAQERLTRTFTRSSHTYTRTERTEISKTRGGETKREVRVEESTQVGGDPFPAVFGDFLGRERLGSFGSITRQQEGEASSQDMTAQVTSPSGKVEAAEIVEGEDSAYSVRFVPQEMGPHTVAVKYRGQHVPGSPFQFTVGPLGEGGAHKVRAGGTGLERGVAGVPAEFSIWTREAGAGGLSIAVEGPSKAEIAFEDRKDGSCGVSYVVQEPGDYEVSIKFNDEHIPDSPFVVPVASLSDDARRLTVTSLQETGLKVNQPASFAVQLNGARGVIDARVHTPSGAVEECYVSELDSDKHTIRFIPHENGVHSIDVKFNGAHIPGSPFKIRVGEQSQAGDPGLVSAYGPGLEGGTTGVSSEFIVNTLNAGSGALSVTIDGPSKVQLDCRECPEGHVVTYTPMAPGNYLIAIKYGGPQHIVGSPFKAKVTGPRLSGGHSLHETSTVLVETVTKSSSSRGSSYSSIPKFSSDASKVVTRGPGLSQAFVGQKNSFTVDCSKAGTNMMMVGVHGPKTPCEEVYVKHMGNRVYNVTYTVKEKGDYILIVKWGDESVPGSPFKVKVP” stands “soluble”; under “MGVYGMEQNFGLISIIMAAYNAENTIEKAVMSVMAQTYTQFELIIINDCSTDKTLSIIKKFEEFDKRIFLINNSYNRGVSYSRRYGLEKARGEWIAILDSDDAWAADKLEKQIRLQKEKNADLVYTGSAFMDSSGNSIEWYLHVPPEIGYRKLLKQNLISNSSALVRKELYMQYYASGDNMHEDFAIWLRILKTGRKAYGIDEPLLIYRFMRKSKSGNKLIAAKMNWNTYRYIGLDVVSRMYYMIWYMFNGLKKYITLNNEVAKV”, “not soluble”.
